“Also recorded” adds a separate entry of the source.
Assays:
[1] = target: T1, SWEET1 (Arabidopsis thaliana, UniProt Q8L9J7); test: Inhibition of SWEET1-mediated glucose uptake in yeast EBY4000 by competing sugars; format: cell-based; set-up: SWEET1, SWEET8 and OsSWEET11 ORFs were amplified by RT-PCR using specific primers from Arabidopsis and rice, respectively; details: 5 mM D-glucose; competitor at 10-fold excess (50 mM)
T1 sequence (Q8L9J7 1-247): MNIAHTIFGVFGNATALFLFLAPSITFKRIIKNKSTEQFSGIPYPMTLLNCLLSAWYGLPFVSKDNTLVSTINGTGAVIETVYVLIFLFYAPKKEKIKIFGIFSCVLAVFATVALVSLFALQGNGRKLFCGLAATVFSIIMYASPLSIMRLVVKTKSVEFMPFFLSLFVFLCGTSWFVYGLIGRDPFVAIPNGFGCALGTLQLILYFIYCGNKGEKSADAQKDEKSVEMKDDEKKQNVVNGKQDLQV
Method: Competitors were added at 10-fold excess (final concentration 50 mM). Relative activity was normalized to D-glucose uptake rate [100%]. Data are mean±S.D.
Yeast uptake. Yeast cells were grown in SD medium supplemented 2% maltose and auxotrophic markers. Cells were harvested at OD600 0.5-0.7 by centrifugation, and washed twice in ice-cold distilled water. Cell pellets were weighed after the supernatant had been removed. Cells were resuspended 5-10% (w/v) in 40 mM potassium phosphate buffer, pH 6.0. Cells were pre-incubated in potassium phosphate buffer for 5 min at 30° C. For each reaction, 330 μl pre-warmed buffer containing 20 mM glucose (0.55 μCi D-[U-^14C] glucose; 590 KBq/μmol, Amersham Pharmacia Biotech Inc.) was added to an equal volume of cells. 120 μl aliquot were withdrawn and transferred to the ice-cold water. Cells were harvested by vacuum filtration onto a glassfiber filters (GF/C, Whatman), and washed twice in 10 ml ice-cold water. Filters were transferred to scintillation vials containing 5 ml of Ultima Gold XR Scintillator liquid (Perkin Elmer). Radioactivity taken up by the cells was measured by liquid scintillation spectrometry. To determine substrate specificity for SWEET1 compared to D-glucose, a ten-fold excess of competing sugar species was used. To determine the pH-dependence of SWEET1 activity, 40 mM potassium phosphate uptake buffer at specified pH was used. […]

[2] = target: T1, SWEET1; test: FRET glucose sensor FLIPglu600μΔ13V co-transfected with SWEET1 in HEK293T cells, cytochalasin B; format: cell-based; set-up: SWEET1, SWEET8 and OsSWEET11 ORFs were amplified by RT-PCR using specific primers from Arabidopsis and rice, respectively; expressed in transfected cells; host or cells: HEK293T; details: 20 μM cytochalasin B
Method: Similar results were obtained for several Arabidopsis paralogs of this gene family.
FRET analysis. Cell culture, transfection, image acquisition and FRET analysis were performed as described previously.
To identify novel glucose transporters from the reference plant Arabidopsis, genes encoding uncharacterized polytopic membrane proteins from the plant membrane protein database Aramemnon, available on the internet at “aramemnon.botanik.uni-koeln.de”,—were screened using a mammalian expression system. Candidate genes were coexpressed with a high-sensitivity FRET glucose sensor (i.e. FLIPglu600μΔ13V) in human embryonic kidney HEK293T cells, which are characterized by low endogenous glucose uptake activity. […] To determine whether SWEET1 can also mediate efflux from the cytosol, we expressed the FRET glucose sensor FLIPglu600μΔ13V^ER in the lumen of the endoplasmic reticulum (ER; FIG. 9B). Topologically, uptake across the plasma membrane (PM) is initiated from the extracellular side of the carrier, while ‘export’ to the ER is initiated from the cytoplasmic side of the transporter (FIG. 9C). […] SWEET1 may thus function as a glucose uniporter, for which the direction of transport depends only on the glucose gradient across the membrane. […]

[3] = target: T2, SGLT1 (Homo sapiens, UniProt P13866); test: Coexpression with SGLT1 in Xenopus oocytes, glucose accumulation; format: cell-based; details: coexpressed with SGLT1
T2 construct: The ORF of SGLT1 (Invitrogen, Carlsbad, Calif.) was amplified by PCR and cloned into pCR2.1-TOPO; host or cells: Xenopus laevis oocytes injected with cRNA from pOO2
T2 sequence (P13866 1-664): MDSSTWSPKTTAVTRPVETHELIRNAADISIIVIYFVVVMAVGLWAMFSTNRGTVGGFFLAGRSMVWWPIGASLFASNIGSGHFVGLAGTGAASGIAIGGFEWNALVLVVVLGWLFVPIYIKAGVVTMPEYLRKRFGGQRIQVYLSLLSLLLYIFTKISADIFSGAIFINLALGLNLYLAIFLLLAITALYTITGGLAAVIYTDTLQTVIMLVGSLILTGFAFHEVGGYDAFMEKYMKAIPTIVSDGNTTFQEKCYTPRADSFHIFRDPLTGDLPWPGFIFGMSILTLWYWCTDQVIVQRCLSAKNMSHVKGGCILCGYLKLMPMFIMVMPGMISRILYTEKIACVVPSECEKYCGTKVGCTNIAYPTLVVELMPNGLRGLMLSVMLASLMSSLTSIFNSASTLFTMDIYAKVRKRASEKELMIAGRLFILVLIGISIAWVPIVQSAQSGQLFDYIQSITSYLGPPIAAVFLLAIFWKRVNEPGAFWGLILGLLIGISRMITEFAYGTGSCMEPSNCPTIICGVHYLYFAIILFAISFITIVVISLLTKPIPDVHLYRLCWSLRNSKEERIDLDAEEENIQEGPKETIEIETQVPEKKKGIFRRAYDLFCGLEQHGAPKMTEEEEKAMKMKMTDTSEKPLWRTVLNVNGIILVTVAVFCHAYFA
Text: Data are mean±SE, n=7. Inset indicates concentrative uptake of glucose by SGLT 1 and glucose efflux (‘leak’) caused by OsSWEET11.
All experiments were repeated independently at least 6 times. Error bars are means±SD.
Human SGLT1 sodium glucose cotransporter (“S”) which has been previously shown to be a secondary active glucose importer. SGLT1 is […] expressed in Xenopus oocytes and can mediate uptake of 14C labelled glucose into the oocyte. When RAG1AP1 (“R”) is coexpressed, less uptake is seen in the oocytes. This is compatible with a glucose ‘leak’ due to RAG1AP1 activity that prevents high accumulation of glucose in the SGLT1 expressing cells.
(§1) Tracer uptake in Xenopus oocytes. The assay was performed with modification as described in Detaille et al. Two days after injection, groups of 7 to 16 oocytes were transferred into tubes containing 200 μL MBS and 1 mM D-glucose (4 μCi/ml D-[^14C(U)]-glucose; 319 mCi/mmol, PerkinElmer). After incubation at 20° C. for one hour, and the cells were washed by adding 1 ml ice-cold MBS. Incubation was stopped by adding ice-cold MBS buffer. The ooctyes were washed three times in ice-cold MBS buffer. The cells were solubilized with 100 μl 1% (w/v) SDS, and measured individually.
The ORF of SGLT1 (Invitrogen, Carlsbad, Calif.) was amplified by PCR and cloned into pCR2.1-TOPO (Invitrogen). […]

[4] = 14C glucose uptake data for C. elegans homologs (FIG. 42); format: cell-based; details: 1 mM and 10 mM glucose
Text: FIGS. 42A and 42B show the 14C glucose uptake data for five of the C. elegans homologs.
At least 3, 4 nd 5 are active. (code for names of C elegans genes:Ce1: C06G8.1; Ce2: K06A4.4; Ce3: Y39A1A.8; Ce4: K11D12.5; Ce5: K02D7.5; (worm mutants of Ce5: K02D7.5 show increased fat accumulation, consistent with reduced efflux of glucose from these cells).

[5] = test system: Xenopus oocytes; test: Tracer [14C]-glucose uptake in Xenopus oocytes; format: cell-based, Xenopus laevis; details: 1 mM D-glucose, 1 h
Method: Xenopus oocytes isolation and RNA injection. After linearization of the pOO2 plasmids with MluI, capped cRNAs were synthesized in vitro by SP6 RNA polymerase using mMESSAGE mMACHINE kit (Ambion, Inc., Austin, Tex.). Xenopus laevis oocytes were kindly provided by M. Goodman (Stanford University). Microinjection was carried out as described by Ballatori et al.. 25 ng to 50 ng of each cRNA was injected into healthy-looking oocytes (RNAse-free water was used as control). The injected oocytes were then maintained at 18° C. in modified Barth's saline (MBS: (in mM) 88 NaCl, 1 KCl, 2.4 NaHCO3, 0.82 MgSO4, 0.33 Ca(NO3)2, 0.41 CaCl2, and 20 HEPES-Tris, pH 7.5) with 100 μM gentamycin, 100 U/ml penicillin and 100 μM streptomycin solution for 2-3 d. The incubation buffer was changed once per day.
as §1, with “individually. […]” for “individually.”

[6] = test system: Xenopus oocytes; test: Tracer efflux assay in Xenopus oocytes injected with [14C]-glucose; format: cell-based, Xenopus laevis; details: S.E., n>7
Method: 50 nl of 10 mM radiolabeled glucose (0.18 μCi/μl) were injected and radiotracer efflux was measured over time. Data are mean±SE (n>10 cells).
Tracer efflux assay in Xenopus oocytes. Efflux was measured essentially as described. Three days after cRNA injection, oocytes were injected with 50 nl solution containing 10 mM D-glucose with 0.18 μCi/μl D-[^14C(U)]-glucose. Cells were immediately washed once in MBS. At defined time points, the reaction buffer (950 μl) was removed for scintillation counting and replaced with fresh medium. Finally, the oocytes were solubilized with 1% SDS and analyzed for radioactivity.
The ORF of SGLT1 (Invitrogen, Carlsbad, Calif.) was amplified by PCR and cloned into pCR2.1-TOPO (Invitrogen). The SGLT1 ORF was excised with EcoRI/XhoI and cloned into the corresponding sites in pOO2. The splice variant RAG1AP1-1 in pDNR-LIB (Clone ID: 4076256, Open Biosystems, Huntsville, Ala.) was restricted with EcoRI/XhoI and cloned into pOO2. RAG1AP1-2 in pCMV-SPORT6 (Clone ID: 3896154, Open Biosystems, Huntsville, Ala.) was transferred into the pOO2-GW (D. Loqué, unpublished) by in vitro LR recombination (Gateway). RAG1AP1-3aa was mutated to Y216A, L218A, L219A (putative internalization motifs) by site-directed mutagenesis and cloned by in vitro BP recombination in pDONR221-f1 and further mobilized into pOO2-GW by LR reaction. […]

CO[C@@H]([C@H](O)[C@H](O)CO)[C@@H](O)C=O [3-O-methylglucose]
inhibition of SWEET1-mediated glucose uptake by competitor sugar [1]: marginally inhibited

C=C1[C@@H](C)[C@H]2[C@H](Cc3ccccc3)NC(=O)[C@]23OC(=O)/C=C/[C@H](O)CCC[C@@H](C)C/C=C/[C@H]3[C@@H]1O [cytochalasin B]
effect of cytochalasin B on SWEET1 (GLUE1)-mediated glucose uptake [2]: insensitive; also recorded: did not affect; also recorded: insensitivity

B1: CeSWEET1: C. elegans SWEET homolog (protein, UniProt O45102 1-299, looked up)
Sugar transporter SWEET1: MLEVVLQVLSISAITTTIALFFCGIPICMQIRRQGAVGDISGVPFLMGVLGGSFWLRYGLLKMDYVMIIVNVVGVACMAFYCVFFLIYSLPKKTFTCQLILVTSTIGGMVLWIALKPNLDYLGVICMTFNIMNFGAPLAGLGVVLKNREVSTLPLPMCVANFLVSSQWCLYGNLVSDIYIIIPNGIGMFLAIVQLALFVVLPIRENEKSPLEKLASWFTGRDSKVKDLERGDCIVSSPPSSPQKVPNETRSDVEDKFDKLMAETSSTIPSDSRRGSMGSPPSYKSRSSSDPDLSSIQSP
effect of coexpression on SGLT1-mediated glucose accumulation in oocytes [3]: counteract secondary active glucose accumulation
14C glucose uptake activity [4]: active
[14C]-glucose uptake into Xenopus oocytes [5]: mediates glucose uptake; also recorded: weak, but significant glucose uptake

B2: RAG1AP1: human homolog of the SWEET sugar transporters (SLC50) (protein)
chain: MEAGGFLDSLIYGACVVFTLGMFSAGLSDLRHMRMTRSVDNVQFLPFLTTEVNNLGWLSYGALKGDGILIVVNTVGAALQTLYILAYLHYCPRKRVVLLQTATLLGVLLLGYGYFWLLVPNPEARLQQLGLFCSVFTISMYLSPLADLAKVIQTKSTQCLSYPLTIATLLTSASWCLYGFRLRDPYIMVSNFPGIVTSFIRFWLFWKYPQEQDRNYWLLQT
% glucose released within 2 min [6]: 5.27±0.29%
effect of coexpression on SGLT1-mediated glucose accumulation in oocytes [3]: less uptake; also recorded: counteract secondary active glucose accumulation; also recorded: counteracted SGLT1-mediated glucose accumulation
[14C]-glucose uptake into Xenopus oocytes [5]: unable to mediate glucose accumulation
